Biological target: 30 kDa ragweed complete pollen extract disulfide protein allergen (Ambrosia trifida (giant ragweed))
Assay: Concanavalin A affinity chromatography

With “Concanavalin A (from UniProt P02866 30-281)” as the substance, how does the percent retained on affinity column read?
Its percent retained on affinity column is over 90%.

Reference: US20030170763A1
